{"source": "the nanobody polyreactivity screen of Harvey et al. (2022)"}
{"assay": "yeast display, Sf9 membrane polyspecificity reagent, FACS + sequencing; frameworks hold sequencing errors", "method_in_brief": "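Nanobodies came from a synthetic yeast display library in Saccharomyces cerevisiae BJ5465, induced with galactose for 36–48 hours and stained for 1 hour at 4 °C with 10% biotinylated, detergent-solubilized Sf9 membrane reagent. Cells were enriched on streptavidin microbeads and then FACS-sorted, with low and high (top ~1%) gates set on anti-HA fluorescence for expression and streptavidin fluorescence for reagent binding. Each polyreactivity label reflects the gate a clone came from. Genes were amplified by colony PCR, sequenced by MiSeq 2 × 250 and filtered by CDR length.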"}
{"sequence": "QVQLVESGGGLLQAGGILRLSCAASGRIFFANAMGWYRQAPGKERELVASITRRSGGTYYADSVKGRFTISRDNAKNTVYLQMNSLKPEDTAVYYCAARYTFPKALYYYWGQGTQVTVSS", "polyreactivity (PSR sort gate)": "high polyreactivity"}
{"sequence": "QVQLVESGGGLLQAGGSHRLSCAASGILVYNAMGWYTQAPGKERELVAAISARGGRTYYADSVKGRFTISRDNAKNTVYLQMNSLKPEDSAVYYCATLETTGVNYWGQGTQVTVSS", "polyreactivity (PSR sort gate)": "high polyreactivity"}
{"sequence": "QVQLVESGGGLLQAGGSLRISCAASGRTLFVYDMGWYRQAPGKERDLVAAITGDGSTNYADSVKGRFTISRDNAKNTVYLQMNSLKPEDPAVYYCNAGDRIGFWNTVEYNYWGQGTQVTVSS", "polyreactivity (PSR sort gate)": "low polyreactivity"}
{"sequence": "QVQLVESGGGLLQAGGSLRLICAASGFIFVTYAMGLYRQEPGKERELVAAITNSGGTTYYADSVKGRFTISRDNAKNTVYLQMNSLKPEDTAGYYCNKPYGAETAHREFDYWGQGTQVTVSS", "polyreactivity (PSR sort gate)": "low polyreactivity"}
{"sequence": "QVQLVESGGGLLQAGGSLRLICAASGITFRYYTMGWYRQAPVKETELVAAITWSGSSTYYADSVKGRFTISRDNAKNTVYLQMNSLKPEDTAVYYCAKPYHQRSAKVDYWGQGTQVTVSS", "polyreactivity (PSR sort gate)": "low polyreactivity"}
{"sequence": "QVQLVESGGGLLQAGGSLRLSCAASGFILNAYTMGWYRQAPGKERELVATITINGGSTYYADSVKGRFTISRDNAKNTVYLQMNSLKPEDTAVYYCNADYWYKYDYWGQGTQVTVSS", "polyreactivity (PSR sort gate)": "low polyreactivity"}
{"sequence": "QVQLVESGGGLLQAGGSLRLSCAASGFTFRYYAMGWYRQAPGKERELVAAISRSGGSTYYADSVKGRFTISRDNAKNTVYLQMNSLKPEDTAVYYCAADDRYGSRYYYWGQGTQVTVTS", "polyreactivity (PSR sort gate)": "high polyreactivity"}
{"sequence": "QVQLVESGGGLLQAGGSLRLSCAASGGTFSLNVMGWYRQAPGKEREFVATITYSGGSTYYADSVKGRFTISRDNAKNTVYLQMKSLKPEDTAVYYCAASFTYSQVTEPYGYWGQGSQVTVSS", "polyreactivity (PSR sort gate)": "low polyreactivity"}
{"sequence": "QVQLVESGGGLLQAGGSLRLSCAASGHIFRGYTMGWYRPAPGKERELVATITWNGVSTFYADSVKGRFTISRDTAKNTVYLQMNSLKPEDTSVYYCAAYYASHDYSGFWSDTYEYWGQGTQVTVSS", "polyreactivity (PSR sort gate)": "low polyreactivity"}
{"sequence": "QVQLVESGGGLLQAGGSLRLSCAASGITFDGNAMGWYRQAPWKERELVAGISGSGGGTYYADSVKGRFTISRDNAKNTVYLQMNSLKPEDTEVYYCAADTSTSHAYDYWGQGTQVTVSS", "polyreactivity (PSR sort gate)": "low polyreactivity"}
{"sequence": "QVQLVESGGGLLQAGGSLRLSCAASGLIFRSYAMGWYRQAPGKERDLVAAITDLFWSTYYADSVKGRFTISRDNAKNTVYLQMNSLKPEDTAVYYCARDDWVYTNVEMDYWGQGTQVTVSS", "polyreactivity (PSR sort gate)": "high polyreactivity"}
{"sequence": "QVQLVESGGGLLQAGGSLRLSCAASGLIFVVNDMGCYTQAPGKERELVAAISYSGSSTYGDSVKGRFTISRDNAKNTVYLQMNSMNPEDTAVYYCARGSTVRTRGVGYWGQGTLVTVSS", "polyreactivity (PSR sort gate)": "low polyreactivity"}
{"sequence": "QVQLVESGGGLLQAGGSLRLSCAASGLTFAFYVMGWYRQAPGKERELVAAISASGASTYYADSVKGRFTISRDNAKNTVYLQMNSLKPEDTAVYYCAADYAVYSFTEFNYWGQGTQVTVSS", "polyreactivity (PSR sort gate)": "high polyreactivity"}
{"sequence": "QVQLVESGGGLLQAGGSLRLSCAASGLTFSKNAMGWYRQATGKERELVATISYSSSRTNYADSVKGRFTISRDNAMNTVYLQMNFLKPEDTAVYYCAARVYKGWPTHYDYWGQGTQVTVSS", "polyreactivity (PSR sort gate)": "high polyreactivity"}
{"sequence": "QVQLVESGGGLLQAGGSLRLSCAASGRIFGWYAMGWYRQAPGKERELVAAISRGGTRTNYADSVKGRFTISRDNSKNTVYLQMNSLKPEDTAVYYCAAGGSWCQNGYWGQGTQVTVSS", "polyreactivity (PSR sort gate)": "high polyreactivity"}
{"sequence": "QVQLVESGGGLLQAGGSLRLSCAASGRIFSIYAMGWYRPAPGKEREMVAAIRRGGSTSYADSVKGRFTISRDNAKNTVYLLMNSLKPEDTAVYYCAARLRYLGYDYWGQGTQVTVSS", "polyreactivity (PSR sort gate)": "high polyreactivity"}
{"sequence": "QVQLVESGGGLLQAGGSLRLSCAASGRIFYYYAMGWYRQAPGKEREFVARNRSSGGSTYADSVKGRFTISRDNAKNTVYLQMNSLKPEDTAVYYCARDGYTAVEYDYWGQGTQVTVSS", "polyreactivity (PSR sort gate)": "low polyreactivity"}
{"sequence": "QVQLVESGGGLLQAGGSLRLSCAASGRNFTHNAMGWYRQAPRKERELVAAITSGGRTTYADSVKGRFTISRDNAKNTVYLQMNSLKPEDSAVYYCNADTGLGSLDFDKRDYWGQGTQVTVSS", "polyreactivity (PSR sort gate)": "low polyreactivity"}
{"sequence": "QVQLVESGGGLLQAGGSLRLSCAASGRTYYTNAMGWYRQAPGKERELVAAISRGGGRTYYADSVKGRFTISRDNAMNSVYLQMNSLKPEDTAVYYCAASPYQGQGREYYYWGQGTQVTESS", "polyreactivity (PSR sort gate)": "high polyreactivity"}
{"sequence": "QVQLVESGGGLLQAGGSLRLSCAASGSIFESYAMGWYRQAPGKERELVAAITSSGDSTYYADSVKGRFTISRDNAKNTVYLQMNSLKPEDTAVYYCAKRVPTYISTAEWGSRYDYWGQGTQVTVSS", "polyreactivity (PSR sort gate)": "low polyreactivity"}
{"sequence": "QVQLVESGGGLLQAGGSLRLSCAASGSILDGNAMGWNRQAPGKERELVAAISYSGGSTYYADSVKGRFTISRDNAKNTVYLQIYSLKPEDTAVYYCAAGSISTPGRGVDKPDAYVYWGQGTQVTVSS", "polyreactivity (PSR sort gate)": "low polyreactivity"}
{"sequence": "QVQLVESGGGLLQAGGSLRLSCAASGSILGPYAMGWYRQAPGKERELVAGIDATDGSTYYADSVKGRFTISRDNAKNTVYLQMNSLKPEDTAVYYCAAAPYAYYGEYNYWGQGTQVTVSS", "polyreactivity (PSR sort gate)": "low polyreactivity"}
{"sequence": "QVQLVESGGGLLQAGGSLRLSCAASGSLFGGYAMAWYRQAPGKEREFGAAISGRGASTYYADSVKGRFTISRDNAKTTVYLQMNSLKPEDTAVYDCNARADGRIDGHSATYGYWGQGTQVTVSS", "polyreactivity (PSR sort gate)": "high polyreactivity"}
{"sequence": "QVQLVESGGGLLQAGGSLRLSCAASGSTFEYNAMGWYRQAPGKERELVASSTNYADSVKGRFTISRDNAKNTVYLQMNSLKPEDTAVYYCAREQGVNRNHDNWGQGTQVTVSS", "polyreactivity (PSR sort gate)": "low polyreactivity"}
{"sequence": "QVQLVESGGGLLQAGGSLRLSCAASGSTFGYYAMGWYRQAPGKERELVAAITRSGTNTYYADSVKGRFTISRDNAKNTVYLQMNSLKPEDTAVYYCNAVSRRRSDYWGQGTQVTVSS", "polyreactivity (PSR sort gate)": "high polyreactivity"}
{"sequence": "QVQLVESGGGLLQAGGSLRLSCAASGSTFVYYAMGWYRQAPGKERELVAAISRSGGNTYYADSVKGRITISRDNAKNTVYLQRNSLKPEDTAVYYSAARSYGVQYYYWGQGTKVTVSS", "polyreactivity (PSR sort gate)": "high polyreactivity"}
{"sequence": "QVQLVESGGGLLQAGGSLRLSCPASGRIFDPYTMGSYRQAPGKERELVARITRRGGRTYYADSVKGRFTISRDNAKNTVYLQMNSLKPEDTAVYYCNADFSYRYYGAYDDWGQGTQVTVSS", "polyreactivity (PSR sort gate)": "high polyreactivity"}
{"sequence": "QVQLVESGGGLLQAGGSLRLSSAASVRIFPSYAMGWYRQARGKEREFVAAITRGGASTYYADSVKGRFTISRDNAKNTVYFEMNSLKPEVTAVYYCAKDAYRYGGFSWTTGMDYWGQGTQVTVSA", "polyreactivity (PSR sort gate)": "high polyreactivity"}
{"sequence": "QVQLVESGGGLLQAGGSRRIRCAASGRIFWVYAMGWYRKAPGKERELVAAISSTGDGTYYADSVKVRFTISRDNAKNSVYLEMNSLKPDDTAVYYCAADFRVARSPLSGGSDFWGQGTQVTVSS", "polyreactivity (PSR sort gate)": "low polyreactivity"}
{"sequence": "QVQLVESGGGLLQAGVSLRLSCASSGRIIDRNAMGWYRQAPGKERELVAAISSSGSTNYADSVKGRFTISRDNAKNTVYLQMNSLKPEDTAVYYCDARWRSVLAAGTRPVSFDYWGQGTQVTVSS", "polyreactivity (PSR sort gate)": "low polyreactivity"}
{"sequence": "QVQLVESGGGLVEAGGSLRISCAASGFIFGPYAMGWYRQAPGKERELVAASWRGGSTYYADSVKGRFTISRDNAKNTVYLQMNSLKPEDTAVYYCAADVIYSLYYYWGQGTQVTVSS", "polyreactivity (PSR sort gate)": "low polyreactivity"}
{"sequence": "QVQLVESGGGLVEAGGSLRISCAASGYIFLRNAMGWYRQAPGKERELVAAIRRTGGSTYYADSVKGRFTISRDNAKNSVYVQMNSLKPEASAVYYCAKRSYTGYEYWGQGNQVTVSS", "polyreactivity (PSR sort gate)": "low polyreactivity"}
